Data set [1] has as its target IL-23 (p40/p19 heterodimer), recombinant human (Homo sapiens, UniProt P29460;Q9NPF7 SEQ:23-328,SEQ:20-189). Nature of the data set: in presence of competitor tRNA (18,000-fold excess). The following applies: tags: R&D Systems 1290-IL-010/CF (catalogue number stated for the selection).
The target of data set [2] is T1, IL-23 (p40/p19 heterodimer), endogenous from activated monocytes (Homo sapiens, UniProt P29460;Q9NPF7 SEQ:23-328,SEQ:20-189). Put plainly: cell_activity; STAT3 activation in PHA blasts, endogenous IL-23. Here is the method: Additionally, the ability of ARC20122 as well as its minimer ARC32225 to inhibit IL-23 dependent stimulation of STAT3 activity in PHA-Blast cells was tested. This assay utilized endogenous IL-23 produced from purified monocytes as described herein. […] ARC32225 performed slightly better than its parent clone with an IC₅₀ of 0.075 nM±0.030 nM. In both cases, the activity was markedly better than the control anti-p19 antibody, IC₅₀=0.69 nM±0.12 nM.
T1 sequence (P29460 23-328, chain 1 of 2): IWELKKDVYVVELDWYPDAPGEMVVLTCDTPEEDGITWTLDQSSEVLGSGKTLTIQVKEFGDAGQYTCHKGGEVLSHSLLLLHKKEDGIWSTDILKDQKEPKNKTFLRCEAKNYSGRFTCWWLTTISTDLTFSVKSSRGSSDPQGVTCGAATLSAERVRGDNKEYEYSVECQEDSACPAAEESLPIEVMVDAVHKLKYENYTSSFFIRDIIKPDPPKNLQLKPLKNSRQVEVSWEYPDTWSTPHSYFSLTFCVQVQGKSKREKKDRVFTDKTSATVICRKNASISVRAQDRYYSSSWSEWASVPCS
T1 sequence (Q9NPF7 20-189, chain 2 of 2): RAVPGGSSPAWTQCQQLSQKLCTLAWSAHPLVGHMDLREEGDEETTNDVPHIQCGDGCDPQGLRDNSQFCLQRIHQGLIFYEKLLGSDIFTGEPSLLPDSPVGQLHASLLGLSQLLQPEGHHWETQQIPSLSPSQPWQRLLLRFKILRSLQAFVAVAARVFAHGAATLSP
(§1) The ability of ARC32225 to inhibit endogenous IL-23 activation of PHA/IL-2 activated T-cells was tested by measuring levels of phospho-STAT3 (“phospho-STAT3 assay”). The binding of IL-23 to its receptor on activated T-cells stimulates several STAT pathways, including STAT3. Peripheral Blood Mononuclear Cells (PBMC) from fresh human blood were isolated by centrifugation in a Histopaque gradient and treated with PHA/IL-2 to enrich for T-cells and to upregulate IL-23 receptors. Cells were serum starved and treated with endogenous IL-23 for 15 minutes, and then lysed. Relative levels of phospho-STAT3 in IL-23 treated lysates, in the presence and absence of ARC32225 or a neutralizing p19 antibody, were measured by ELISA (Cell Signaling Technologies, Danvers, Mass.). Titrations of aptamer/antibody were used to generate inhibition curves from which IC₅₀ determinations were made.

The target in data set [3] is T1, IL-23 (p40/p19 heterodimer), endogenous …. Put plainly: cell_activity; phospho-STAT3 ELISA in PHA/IL-2 T-cells, seven titrations; a separate comparison with ARC20122 gave 0.075±0.030 nM (p832). Here is the method:
as §1
Percent inhibition was recorded for each concentration tested for all donors (data not shown). Individual IC50 for each donor were also recorded (data not shown).
(In general: In an ELISA, binding on a coated surface is turned into a signal by an enzyme label.)

Data set [4] shares this target. Put plainly: cell_activity; STAT3 inhibition assay; compensatory pair restores activity; IL-23 source not stated for this assay.
For data set [5] the target is unchanged. Put plainly: cell_activity; STAT3 inhibition assay; disrupts G2-C30 loop-tail tertiary contact; IL-23 source not stated for this assay.

Sequence of IL-23 (p40/p19 heterodimer), recombinant human (P29460 23-328, chain 1 of 2): as the sequence (P29460 23-328, chain 1 of 2) above
Sequence of IL-23 (p40/p19 heterodimer), recombinant human (Q9NPF7 20-189, chain 2 of 2): as the sequence (Q9NPF7 20-189, chain 2 of 2) above

B1: ARC20122 (ssRNA)
RNA: GGAGGGAAAAGUUAUCAGGCUUCUAUCGGGCGCCGCGUUUUCCCUGUGUUAGCCAUCGUCCGACGAGUAGGCUAGUCUGAUGCC
modifications: 2'-OMe A and G, 2'-F C and U (mA,mG,fC,fU)
Usually Kd stands for the equilibrium constant for the complex coming apart. One may read the IC50 as the concentration that gives 50% inhibition. For the molecule B1, in data set [1], the Kd was found to be 9.1 nM. Further, it took 0.26 nM to reach half-maximal inhibition in data set [2] (IC50).

B2: ARC32225 (ssRNA)
RNA: AGGGAAAUCAGGCUUUAUCGGGCGCCGCUCCCUGUGCCAUCGUCCGAGAGUAGGUAGUCUG
modifications: mixed 2'-OMe and 2'-F as printed (10 mA, 1 fA, 14 mG, 6 fG, 3 mC, 13 fC, 1 mU, 13 fU); 3' idT
On to B2, for which the IC50 in data set [3] was determined as 0.296 nM.

B3: ARC32225 G2A/C30U (ssRNA)
RNA: AAGGAAAUCAGGCUUUAUCGGGCGCCGCUUCCUGUGCCAUCGUCCGAGAGUAGGUAGUCUGU
modifications: mixed 2'-OMe and 2'-F as parent [mixed 2'-OMe and 2'-F as parent (positions not given)]
In turn, B3 had an IC50 in data set [4] of 0.5 nM. That is a sub-nanomolar value.

B4: ARC32225 G2A (ssRNA)
RNA: AAGGAAAUCAGGCUUUAUCGGGCGCCGCUCCCUGUGCCAUCGUCCGAGAGUAGGUAGUCUGU
modifications: mixed 2'-OMe and 2'-F as parent [mixed 2'-OMe and 2'-F as parent (positions not given)]
In the case of B4, in data set [5], the IC50 was determined as 108 nM.

The record behind these values is patent publication US20170166894A1, “APTAMERS FOR TOPICAL DELIVERY” (GlaxoSmithKline Intellectual Property Development Limited, published 2017).
